B1: MB2 (A2) mutant oligo (dsDNA)
DNA 1: GCACAAGACAACTGCTTAGCAAACGGG
DNA 2: CCCGTTTGCTAAGCAGTTGTCTTGTGC
modifications: [11,12]
B2: MB3 (A3) mutant oligo (dsDNA)
DNA 1: ACTACAGACACCTGCCACCACACCCAA
DNA 2: TTGGGTGTGGTGGCAGGTGTCTGTAGT
modifications: [12]
B3: MB1 (A1) mutant oligo (dsDNA)
DNA 1: GGGCCTGCCAACTGCACCCCGCCCGGG
DNA 2: CCCGGGCGGGGTGCAGTTGGCAGGCCC
modifications: [11,12]

biological target: GST-C92 Myc/Max heterodimer (UniProt P01106;P61244 P01106:363-454,P61244:1-160); test: competition; mutant oligo did not compete; conditions: tags: GST on Myc C-terminal 92 aa (C92Myc)
Source text: To test whether Myc/Max complexes could efficiently bind to the isolated sites, we performed electrophoretic mobility shift assays (EMSA) on each DNA fragment, confirming that they represent functional myc-binding elements in vitro. For instance, oligonucleotides, matching the Myc binding site from F1, F2 and from the second intron of the cdc25A (MB3) were also checked by EMSA. In this case, oligonucleotides corresponding to a wild type site and a single point mutant within the consensus sequence site were used to compete with the cdc25A sites. […] Similar results were obtained for MB2 and MB3.
For the identification of the Myc/Max binding sequences within the cdc25 genomic regions we utilized an affinity chromatography procedure, similar to immunoprecipitation procedures (Okamoto et al. (1994) EMBO J. 13:4816-4822). Briefly, cdc25 (A, B and C) genomic clones were digested with the Hinfl restriction endonuclease, end-labeled with p32 and further incubated with 10 ng of the GSTC92Myc/Max complexes in the binding buffer (Ayer et al. (1993) Cell 72:211-222), followed by incubation with 20 μl of glutathione sepharose for 30 min at 4° C. Isolated complexes were washed four times in the binding buffer, eluted with proteinase K digestion, treated with phenol/chloroform and further ethanol precipitated. Precipitated material was resuspended in 10-20 μl of TE and subjected to polyacrylamide gel (PAG) electrophoresis, followed by autoradiography. Total digests were treated the same way, except affinity chromatography on the glutathione beads, and run as a control on a gel on a parallel lane with the purified material. Electrophoretic mobility shift assays (EMSA) were done either with F1 or F2 fragments or with the synthetic oligonucleotides, corresponding to MB 1, MB2 or MB3 as described in the art, c. f., Ayer et al. (1993) Cell 72:211-222. Mutant oligonucleotides correspond to the same sequence as F1 and F2 with CATGTG changed to CAACTG (for A1 and A2) or CACGTG changed to CACCTG (for A3). CM-1 oligonucleotide has been described (Ayer et al. supra).

Sequence of GST-C92 Myc/Max heterodimer (P01106 363-454, chain 1 of 2): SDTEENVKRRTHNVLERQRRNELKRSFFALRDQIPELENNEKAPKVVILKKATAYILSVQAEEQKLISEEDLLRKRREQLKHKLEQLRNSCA
Sequence of GST-C92 Myc/Max heterodimer (P61244 whole entry, chain 2 of 2, the tested form may be a part): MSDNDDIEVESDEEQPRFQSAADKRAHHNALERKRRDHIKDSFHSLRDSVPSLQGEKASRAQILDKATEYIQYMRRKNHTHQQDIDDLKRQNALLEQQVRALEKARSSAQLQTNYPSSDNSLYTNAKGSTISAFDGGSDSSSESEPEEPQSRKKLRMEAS

Binding result, no binding:
B1
B2
B3
